Measurements from patent US11142588B2, “Polypeptides which bind C-X-C chemokine receptor type 4 (CXCR4) and methods of treating or reducing the risk of fibrosis and cancer” (AdAlta Limited, priority 2015, dated 2021).
Several values for one entry are separate records, joined by “and”; a condition that tells them apart may be missing. Equal values may be shown once. One block for each molecule: values may come before it.

What was measured:
[1] = cited from earlier work; for bleomycin induced pulmonary fibrosis: Xu et al 2007
[2] = test system: Ramos tumor cells; experiment: Apoptosis assay (annexin V / propidium iodide flow cytometry); assay type: cell-based, human; conditions: annexin V and propidium iodide double positive, 24 or 72 hours
Experimental: The ability of an i-body of the invention to induce apoptosis in Ramos tumor cells (a human Burkitt's lymphoma cell line) was examined in an apoptosis assay according to the methods as described in Mishra M et al (2011) J Cell Mol Med 15(11):2462-77. I-bodies were incubated with Ramos cells and examined by flow cytometry after 24 or 72 hours. The cells were stained for annexin V and propidium iodide which are classic markers for apoptosis. Cells which were double positive were assessed to have become apoptotic.

[3] = mouse, in vivo, iv, 2 mg/kg
[4] = biological target: CXCR4 (Homo sapiens, UniProt P61073); experiment: β-arrestin BRET assay, antagonist mode with 100 nM SDF-1; assay type: cell-based; set-up: expressed in transfected cells; host or cells: HEK293FT; conditions: only an order of magnitude is printed in the cell
Source text: (FIGS. 3A-3F and 14) BRET was used in this study to assess the real-time kinetic profiles resulting from any consequent increase in proximity, building upon the previously validated monitoring of GPCR/β-arrestin interactions utilizing BRET. BRET occurs between a complementary Renilla luciferase (Rluc) variant as donor and green fluorescent protein variant as acceptor. Upon Rluc-catalyzed oxidation of the coelenterazine substrate (such as coelenterazine h for first generation BRET (BRET) or EnduRen for extended BRET (eBRET), energy is transferred to the acceptor if within 10 nm, resulting in acceptor light emission peaking at a characteristic wavelength. BRET (3-arrestin assays were carried out as described previously (See, H. B., Seeber, R. M., Kocan, M., Eidne, K. A. and Pfleger, K. D. (2011) ‘Application of G protein-coupled receptor-heteromer identification technology to monitor beta-arrestin recruitment to G protein-coupled receptor heteromers’, Assay Drug Dev Technol, 9(1), 21-30, 10.1089/adt.2010.0336). CXCR4/Rluc8 cDNA constructs were generated from plasmids containing the respective receptor cDNA tagged with Rluc kindly provided by Aron Chakera (Oxford University, United Kingdom). The β-arrestin 2/Venus cDNA construct was prepared previously from pCS2-Venus kindly provided by Atsushi Miyawaki (RIKEN Brain Science Institute, Wako-city, Japan). BRET technology in cells transiently expressing CXCR4/Rluc8 and β-arrestin2/Venus in the presence of 100 nM SDF-1 agonist was evaluated in the presence of the CXCR4 agonist SDF-1/CXCL12 and the i-bodies. HEK293FT cells were maintained at 37° C., 5% CO2 in Complete Media (Dulbecco's modified Eagle's medium containing 0.3 mg/mL glutamine, 100 IU/mL penicillin, and […] streptomycin; Gibco) supplemented with 10% fetal calf serum (FCS) and […] Geneticin (Gibco). Transfections were carried out 24 h after seeding using Genejuice (Novagen) according to manufacturer's instructions. Cells were harvested with 0.05% Trypsin-EDTA (Gibco). HEK293FT cells were transfected using FuGene6 (Promega). 5 μM coelenterazine h (Promega) in HBSS was used as the luciferase substrate solution. Cells were harvested 24 h post-transfection in HEPES-buffered phenol red-free Complete Medium containing 5% FCS and added to a poly-L-lysine-coated white 96-well plate (Nunc). Dose-response curves were generated using BRET, with medium in the plate being replaced with PBS containing […] coelenterazine h (Molecular Probes) and assays carried out immediately. For these assays, 48 h post-transfection, the plate was incubated at […], 5% CO2 for 2 h with […] EnduRen (Promega) to ensure substrate equilibrium was reached. All BRET measurements were taken at 37° C. using the VICTOR Light plate reader with Wallac 1420 software (PerkinElmer). Filtered light emissions were sequentially measured at 400-475 and 520-540 nm. The BRET signal was calculated by subtracting the ratio of 520-540 nm emission over 400-475 nm emission for a vehicle-treated cell sample from the same ratio for a second aliquot of the same cells treated with agonist (in this instance in the presence of SDF-1 or CXCL12) and i-body (ADCX-99, ADCX-272, ACDX-6, ACDX-306, ADCX-668) at various concentrations. Data are mean±S.E.M. of four independent experiments carried out in duplicate.
Binding of the i-bodies to CXCR4 were examined in a β-Arrestin BRET assay as described in See, Heng B et al (2011) Assay and Drug Development Technologies 9(1):21-30. The i-bodes were examined at ten concentrations with and without 100 nM SDF-1 with the addition of ‘vehicle’ and ‘SDF-1+vehicle’ controls in order to characterise if the i-bodies are agonist or antagonists of CXCR4 activity.

[5] = biological target: T1, human CXCR4 (CXCR4 positive lipoparticles) (Homo sapiens, UniProt P61073); experiment: Biacore SPR kinetic binding to immobilised CXCR4 lipoparticles
T1 construct: purchased Integral Molecular LEV-101B
Experimental: (FIGS. 2A-2C, 5A-5C, 11A-11D, 17A-17B) Kinetic binding analysis of selected i-bodies with immobilized CXCR4 lipoparticles were performed at 25° C. using Biacore T200 instrument (GE Healthcare, Uppsala, Sweden). Streptavidin immobilization was performed in 1×HBS-P+ running buffer (10 mM HEPES, 150 mM NaCl, 0.05% [v/v] Tween-20). […] All binding experiments involving lipoparticles were performed with 1×HBS/BSA (10 mM HEPES, 150 mM NaCl, 1 mg/mL BSA) as instrument running buffer. […] In order to determine binding kinetics, serial dilutions (three-fold) of i-bodies diluted in 1×HBS/BSA were injected over immobilized lipoparticles with the association and dissociation phases monitored for 60 sec and 600 sec, respectively. A control measurement of the instrument running buffer (“zero-buffer” blank) solution was also included for double referencing purposes. Collected experimental data were processed using Scrubber software (www.biologic.com.au). Kinetic parameters (ka=association and kd=dissociation rate constants) and equilibrium dissociation constant (KD=kd/ka) were derived by fitting each set of experimental data to a Langmuir 1:1 binding model. All interaction measurements were performed in triplicate and the derived binding parameters reported as averaged values±standard deviation.

[6] = biological target: T2, CCR4 (Homo sapiens, UniProt P51679); experiment: PathHunter (DiscoverX) β-arrestin assay, CCR4; assay type: cell-based
T2 sequence (P51679 1-360): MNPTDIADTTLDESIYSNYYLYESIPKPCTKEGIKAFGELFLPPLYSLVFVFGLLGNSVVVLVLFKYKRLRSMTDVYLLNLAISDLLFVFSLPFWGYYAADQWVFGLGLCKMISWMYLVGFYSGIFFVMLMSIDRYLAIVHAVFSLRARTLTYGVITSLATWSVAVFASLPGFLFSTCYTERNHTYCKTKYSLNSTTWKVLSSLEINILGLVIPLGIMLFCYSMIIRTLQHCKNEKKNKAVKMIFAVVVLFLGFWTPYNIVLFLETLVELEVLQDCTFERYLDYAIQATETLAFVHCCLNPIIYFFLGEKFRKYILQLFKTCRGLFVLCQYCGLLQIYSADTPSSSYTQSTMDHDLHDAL
Experimental: (FIG. 9) The PathHunter® β-Arrestin assay (DiscoveRx) was performed according to the manufacturer's protocol. Cells were seeded into white walled, 384-well tissue culture-treated microplates (Corning) and normalized at 5,000 cells (or 10,000 cells for CXCR4) in a total volume of […]. Cell growth was at 37° C. (5% CO2, 95% relative humidity). […] Agonists were then added at the EC80 concentration and incubation was continued at 37° C. for 90 min (or 180 min for CCR1). Assay signal was generated through a single addition of 15 μL (50% v/v) of PathHunter Detection reagent cocktail, followed by 1 h incubation at room temperature. Microplates were read following signal generation with a PerkinElmer Envision instrument for chemiluminescent signal detection of relative light units (RLU).

[7] = test system: CCL2 and CCL5 protein; experiment: CCL2, CCL5, CXCL12 ELISA of fibroblast conditioned supernatants; assay type: cell-based, human; conditions: 48 hours
Source text: Various reports indicate that CXCR4 signals in conjunction with other chemokine receptors, including CCR2.

[8] = CXCR4 expressed on lipoparticles (Table 4)
[9] = off-rate, CXCR4 expressed on lipoparticles (Table 3)

T1 sequence (P61073 whole entry): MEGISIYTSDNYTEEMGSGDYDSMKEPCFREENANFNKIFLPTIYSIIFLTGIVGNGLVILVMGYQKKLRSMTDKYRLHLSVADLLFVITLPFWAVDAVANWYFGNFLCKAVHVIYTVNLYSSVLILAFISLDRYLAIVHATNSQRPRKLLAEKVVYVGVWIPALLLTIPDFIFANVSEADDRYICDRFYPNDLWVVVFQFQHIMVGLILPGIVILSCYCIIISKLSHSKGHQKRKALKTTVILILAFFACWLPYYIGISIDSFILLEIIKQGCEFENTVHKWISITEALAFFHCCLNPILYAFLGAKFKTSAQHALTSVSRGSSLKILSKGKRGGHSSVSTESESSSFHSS
Sequence of CXCR4 (P61073 whole entry): as above

Molecule: c1cnc(NCc2ccc(CNc3ncccn3)cc2)nc1 [MSX-122]
development of pulmonary fibrosis in irradiated mice ([1]; Shu et al 2013): significant reductions in development of pulmonary fibrosis
bleomycin induced pulmonary fibrosis [1]: completely preventing bleomycin-induced lung fibrosis

Molecule: C/C=C(/C)C(=O)O[C@H]1C(C)=C2[C@H]([C@@H]1OC(=O)CCCCCCC)[C@@](C)(OC(C)=O)C[C@H](OC(=O)CCC)[C@@]1(O)[C@H]2OC(=O)[C@@]1(C)O [Thapsigargin, reference compound]
induction of apoptosis in Ramos cells [2]: expected level of apoptosis

Molecule: TN14003
bleomycin induced pulmonary fibrosis [1]: blocks development of pulmonary fibrosis

B1: AM3-114-Im7-FH-SA21: dual specificity i-body, AM3-114 with 18-residue HSA binding peptide SA21, SEQ ID NO: 80 (protein)
chain: MALQVDIVPSQGEISVGESKFFLCQVAGSLSGIRISWFSPNGEKLTPNQQRISVVWNDDSSSTLTIYNANIDDAGIYKCVVWRTGGYRHRYLVLGEATVNVKIFQGGGGSELKNSISDYTEAEFVQLLKEIEKENVAATDDVLDVLLEHFVKITEHPDGTDLIYYPSDNRDDSPEGIVKEIKEWRAANGKPGFKQGGGGGSDYKDDDDKGSGHHHHHHHHGGGGSRLIEDICLPRWGCLWEDD
modifications: protein sequence encoding AM3-114-Im7-FH-SA21 dual specificity ibody
AUC0-T [3]: 25266 ng·h/mL
Auc0-∞ [3]: 25544 ng·h/mL
C0 [3]: 23284 ng/mL
ClTOT [3]: 1.3049 mL/min/kg
Thalf [3]: 0.95 h
Tlast [3]: 6.00 h
VD [3]: 0.107571 L/kg
λZ [3]: 0.7279 h⁻¹

IC50 in β-Arrestin BRET assay (Antagonist mode in the presence of 100 nM SDF-1) [4]: ~uM
dissociation rate constant (kd) [5, 9]: 0.01445
CCR4 activity [6]: −5%
B2: AM5-245: affinity matured CXCR4 i-body, SEQ ID NO: 68 (protein)
chain: LQVDIVPSQGEISVGESKFFLCQAAGSGSHIRISWFSPNGEKLTPNQQRISVVWNDDSSSTLTIYNANIDDAGIYKCVVWRTGGYRHRALVLGEATVNVKIFQ
modifications: protein sequence encoding AM5-245
Ka [5, 8]: 813000 M⁻¹ s⁻¹ and 771000 M⁻¹ s⁻¹
dissociation rate constant (kd) [5, 8]: 12100 M⁻¹ s⁻¹ and 12300 M⁻¹ s⁻¹

IC50 in β-Arrestin BRET assay (Antagonist mode in the presence of 100 nM SDF-1) [4]: ~uM
dissociation rate constant (kd) [5, 9]: 0.00817
B3: AM3-920: affinity matured CXCR4 i-body, SEQ ID NO: 44 (protein)
chain: LQVDIVPSQGEISVGESKFFLCQVAGSGSGIRISWFSPNGEKLTPNQQRISVVWNDDSSSTLTIYNANIDDAGIYKCVVWRTGGYRHRYLVLGEATVNVKIFQ
modifications: protein sequence encoding AM3-920
Ka [5, 8]: 1.117e+06 M⁻¹ s⁻¹ and 1.26e+06 M⁻¹ s⁻¹
dissociation rate constant (kd) [5, 8]: 8020 M⁻¹ s⁻¹ and 7410 M⁻¹ s⁻¹

B4: AM3-523-6H: AM3-523 with 6 His tag, containing the N-terminal sequence EAEA (protein)
chain: EAEALQVDIVPSQGEISVGESKFFLCQVAGSGSHMRISWFSPNGEKLTPNQQRISVVWNDDSSSTLTIYNANIDDAGIYKCVVWRVGGYRHRALVLGEATVNVKIFQ
modifications: left off: small tags and cut ends
induction of apoptosis in Ramos cells [2]: strongly induce apoptosis

B5: 21H5-6H: control iBody 21H5 with 6 His tag (protein)
chain: LQVDIVPSQGEISVGESKFFLCQVAGDAKDKDISWFSPNGEKLTPNQQRISVVWNDDSSSTLTIYNANIDDAGIYKCVVTGSDAMSNYSYPISESEATVNVKIFQ
CCL5 levels in IPF lung fibroblasts [7]: observed in one slow-IPF lung fibroblast line
